Measurements from patent publication US20200408770A1 (NITTO BOSEKI, published 2020).

Assays:
[1] = biological target: T1, Ki-67 antigen (MKI67: Marker Of Proliferation Ki-67) (human, UniProt P46013 1-3256); experiment: flow cytometry, formalin-fixed T47D cells, thrombin treatment not done; share of nuclei above the 95 percentile of the isotype control
T1 construct: Formalin-crosslinked and possibly partly cleaved; also called K-67

[2] = biological target: T1, Ki-67 antigen (MKI67: Marker Of …); experiment: flow cytometry, formalin-fixed SKBr3 cells, thrombin treatment done; share of nuclei above the 95 percentile of the isotype control
[3] = biological target: T1, Ki-67 antigen (MKI67: Marker Of …); experiment: flow cytometry, formalin-fixed T47D cells, thrombin treatment done; share of nuclei above the 95 percentile of the isotype control
[4] = biological target: T1, Ki-67 antigen (MKI67: Marker Of …); experiment: flow cytometry, formalin-fixed MDA-MB-231 cells, thrombin treatment done; share of nuclei above the 95 percentile of the isotype control
[5] = biological target: T1, Ki-67 antigen (MKI67: Marker Of …); experiment: flow cytometry, formalin-fixed SKBr3 cells, thrombin treatment not done; share of nuclei above the 95 percentile of the isotype control
[6] = biological target: T1, Ki-67 antigen (MKI67: Marker Of …); experiment: flow cytometry, formalin-fixed MDA-MB-231 cells, thrombin treatment not done; share of nuclei above the 95 percentile of the isotype control

T1 sequence (P46013 whole entry): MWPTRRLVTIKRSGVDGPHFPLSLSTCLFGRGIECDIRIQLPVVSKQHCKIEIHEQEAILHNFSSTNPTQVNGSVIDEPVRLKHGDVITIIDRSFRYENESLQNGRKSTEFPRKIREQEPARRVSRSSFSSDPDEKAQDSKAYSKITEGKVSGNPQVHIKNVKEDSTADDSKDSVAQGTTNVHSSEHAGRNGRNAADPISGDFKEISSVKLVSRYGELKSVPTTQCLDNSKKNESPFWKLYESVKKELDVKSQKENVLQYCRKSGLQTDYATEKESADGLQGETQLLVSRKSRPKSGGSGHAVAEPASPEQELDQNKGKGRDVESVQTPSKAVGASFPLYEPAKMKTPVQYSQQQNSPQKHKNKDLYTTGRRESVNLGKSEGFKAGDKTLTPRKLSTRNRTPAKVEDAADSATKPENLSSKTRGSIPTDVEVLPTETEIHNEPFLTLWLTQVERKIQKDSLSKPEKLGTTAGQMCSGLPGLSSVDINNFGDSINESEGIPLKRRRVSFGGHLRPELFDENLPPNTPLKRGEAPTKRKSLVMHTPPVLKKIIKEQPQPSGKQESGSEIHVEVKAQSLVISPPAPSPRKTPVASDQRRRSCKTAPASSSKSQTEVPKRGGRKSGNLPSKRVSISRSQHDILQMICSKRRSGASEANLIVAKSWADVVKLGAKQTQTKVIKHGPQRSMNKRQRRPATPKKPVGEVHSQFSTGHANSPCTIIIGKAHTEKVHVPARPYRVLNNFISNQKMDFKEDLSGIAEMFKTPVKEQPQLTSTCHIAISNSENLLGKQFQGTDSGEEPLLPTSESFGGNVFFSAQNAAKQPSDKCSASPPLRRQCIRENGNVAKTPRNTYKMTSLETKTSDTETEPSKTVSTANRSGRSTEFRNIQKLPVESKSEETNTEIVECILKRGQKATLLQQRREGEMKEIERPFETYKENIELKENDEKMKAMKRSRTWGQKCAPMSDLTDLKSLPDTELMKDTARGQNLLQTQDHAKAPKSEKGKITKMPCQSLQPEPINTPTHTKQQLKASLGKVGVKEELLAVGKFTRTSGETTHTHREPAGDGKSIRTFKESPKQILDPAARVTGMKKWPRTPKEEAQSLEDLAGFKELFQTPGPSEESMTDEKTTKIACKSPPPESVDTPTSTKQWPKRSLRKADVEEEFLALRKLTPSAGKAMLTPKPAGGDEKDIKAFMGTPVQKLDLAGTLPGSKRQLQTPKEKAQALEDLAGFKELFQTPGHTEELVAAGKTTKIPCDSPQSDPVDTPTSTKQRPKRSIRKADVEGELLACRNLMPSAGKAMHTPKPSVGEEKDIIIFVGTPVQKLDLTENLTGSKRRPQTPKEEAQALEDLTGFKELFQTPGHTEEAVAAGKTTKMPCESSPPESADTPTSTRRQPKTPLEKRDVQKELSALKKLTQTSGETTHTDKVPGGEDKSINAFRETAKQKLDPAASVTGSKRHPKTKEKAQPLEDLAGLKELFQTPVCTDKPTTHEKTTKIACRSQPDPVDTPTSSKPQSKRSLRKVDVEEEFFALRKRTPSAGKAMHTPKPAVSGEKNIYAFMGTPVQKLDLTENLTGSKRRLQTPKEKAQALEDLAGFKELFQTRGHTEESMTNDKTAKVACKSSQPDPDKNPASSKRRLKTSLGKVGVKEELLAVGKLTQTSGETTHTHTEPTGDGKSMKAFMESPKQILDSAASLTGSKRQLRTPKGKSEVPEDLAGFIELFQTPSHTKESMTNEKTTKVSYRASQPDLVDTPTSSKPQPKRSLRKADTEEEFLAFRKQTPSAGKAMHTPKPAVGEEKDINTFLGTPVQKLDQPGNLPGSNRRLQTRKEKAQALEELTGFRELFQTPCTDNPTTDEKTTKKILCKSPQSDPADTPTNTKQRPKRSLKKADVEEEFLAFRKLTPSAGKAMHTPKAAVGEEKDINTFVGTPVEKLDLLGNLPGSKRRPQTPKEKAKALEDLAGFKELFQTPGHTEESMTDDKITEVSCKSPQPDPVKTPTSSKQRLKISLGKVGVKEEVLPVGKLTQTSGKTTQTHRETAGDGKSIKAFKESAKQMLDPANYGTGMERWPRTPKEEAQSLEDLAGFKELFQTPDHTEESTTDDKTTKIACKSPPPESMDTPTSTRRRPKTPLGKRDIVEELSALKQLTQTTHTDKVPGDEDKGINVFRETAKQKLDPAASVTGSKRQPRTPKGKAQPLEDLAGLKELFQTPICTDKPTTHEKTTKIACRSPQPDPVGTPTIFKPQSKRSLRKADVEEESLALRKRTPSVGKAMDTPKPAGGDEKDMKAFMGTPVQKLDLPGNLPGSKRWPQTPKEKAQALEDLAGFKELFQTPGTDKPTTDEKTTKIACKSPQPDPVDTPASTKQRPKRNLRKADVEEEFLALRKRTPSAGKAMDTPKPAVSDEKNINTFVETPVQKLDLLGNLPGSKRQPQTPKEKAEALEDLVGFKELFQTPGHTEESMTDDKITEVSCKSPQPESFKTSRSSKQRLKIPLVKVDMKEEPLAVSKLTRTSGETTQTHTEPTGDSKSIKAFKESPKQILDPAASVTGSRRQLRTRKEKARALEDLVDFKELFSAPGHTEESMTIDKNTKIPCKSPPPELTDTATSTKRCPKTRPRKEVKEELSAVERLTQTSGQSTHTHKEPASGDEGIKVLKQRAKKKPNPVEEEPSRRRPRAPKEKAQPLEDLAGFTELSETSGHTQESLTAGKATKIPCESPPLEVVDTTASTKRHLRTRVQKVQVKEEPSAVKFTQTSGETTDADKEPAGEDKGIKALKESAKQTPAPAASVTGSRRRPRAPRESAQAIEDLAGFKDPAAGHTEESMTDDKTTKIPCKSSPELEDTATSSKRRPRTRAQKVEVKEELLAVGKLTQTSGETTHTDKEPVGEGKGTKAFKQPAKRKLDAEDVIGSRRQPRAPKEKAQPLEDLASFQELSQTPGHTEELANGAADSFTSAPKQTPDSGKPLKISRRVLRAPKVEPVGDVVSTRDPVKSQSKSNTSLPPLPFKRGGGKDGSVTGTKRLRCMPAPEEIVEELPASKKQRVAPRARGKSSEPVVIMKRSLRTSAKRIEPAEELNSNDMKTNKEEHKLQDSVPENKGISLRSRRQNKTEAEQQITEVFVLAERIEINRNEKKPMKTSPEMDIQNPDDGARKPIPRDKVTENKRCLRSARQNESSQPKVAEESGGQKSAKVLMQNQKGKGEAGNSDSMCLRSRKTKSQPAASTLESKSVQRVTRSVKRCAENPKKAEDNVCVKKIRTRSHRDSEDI

Ki-67-positive ratio [1]: 24.3
Ki-67-positive ratio [2]: 19.8
Ki-67-positive ratio [3]: 37.3
Ki-67-positive ratio [4]: 39.9
Ki-67-positive ratio [5]: 6.52
Ki-67-positive ratio [6]: 33.1
B1: Ki-67 antibody (Dako, clone: MIB-1, mouse monoclonal antibody) (antibody, V domains shown)
VH: EVQLQESGPGILQPSQTLSLTCSFSSYHFGDIVGWIRQPSGKGLEWLAHNWKDINDNKYNTALKSRLTISKDTSNNQVFLKIASVDTADTATYYCASYGHYDHWGQGSTLTVSS
VL: DIVMTQSPLSLPVSLGDQASISCRSSSQSVINGQSNYLEWYLQKPGQSPKLLIYLVSNRFSGVPDRFSGSGSGTDFTLKISRVEAEDLGVYYCFQSGVHWPTFGGGTKL
